Experimental data from US11078465B2, “Alcohol dehydrogenase mutant and application thereof in synthesis of diaryl chiral alcohols” (Jiangnan University, priority 2018, dated 2021).
Entries after “also recorded” stand apart in the source; their conditions may differ.

What was measured:
Assay type in all cases: biochemical
[1] = Stereoselectivity on different substrates; conditions: configuration in brackets
Protocol: (§1) In an embodiment of the present disclosure, a chromatographic analysis method is as follows: 100 μL of reactant liquid is taken, 500 μL of ethyl acetate is added, shaking is performed for 1-2 min, centrifugation is performed at 12,000 rpm for 2-5 min, supernatant liquid is taken into a centrifuge tube, after an organic phase naturally volatilizes completely, 500 μL of chromatographically pure ethanol is added, and chiral liquid chromatography and gas chromatography are performed to analyze the transformation rate and the ee value.
(§2) Method for determining optical purity ee:
(§3) As: molar concentration of (S)-CPMA obtained by liquid chromatography; and AR: molar concentration of (R)-CPMA obtained by liquid chromatography.
(§4) The reduction on prochiral carbonyl compounds by the alcohol dehydrogenase mutants obtained in Example 3 was studied. The pro-chiral carbonyl compounds include (4-chlorophenyl)-(pyridin-2-yl)-methanone (CPMK), phenyl-(pyridin-2-yl)-methanone, (4-chlorophenyl)-(phenyl)-methanone, (4-bromophenyl)(phenyl)methanone, (4-fluorophenyl)(phenyl)methanone, (4-methoxyphenyl)-(phenyl)-methanone, (4-nitrophenyl)(phenyl)methanone, 1-(pyridin-2-yl)ethanone, acetophenone, 4′-Chloroacetophenone, 4-chlorophenacyl chloride, ethyl 2-oxo-4-phenylbutanoate (OPBE), ethyl 4-chloro-3-oxobutanoate, and methyl 2-oxo-2-phenylacetate.

[2] = Stereoselectivity on different substrates; conditions: for Stereoselectivity (ee): configuration in brackets
Protocol: as §1, §2, §3, §4
All the products above were recrystallized from ethyl acetate and gave more than 99.9% optical purity.

[3] = Asymmetric reduction in 20 mL biocatalytic system, conversion
Protocol: as §1
The pure (R)-CPMA were recrystallized from ethyl acetate at 4° C. and gave 99.9% optical purity. […] Besides, the conversion cannot reach 100% with 24 h in the asymmetric reduction of (4-bromophenyl)-(phenyl)-methanone and p-nitrobenzophenone due to the low enzyme activity.

[4] = Substrate specificity, specific activity
Protocol: (§5) Adopting a total reaction system of 200 μL, including: 1.0 mM NADPH, 1.0 mM substrate CPMK and sodium phosphate buffer (PBS, 100 mM, pH 7.0), fully and evenly mixing, maintaining at 30° C. for 2 min, adding an appropriate amount of enzyme solution, and detecting the change in light absorption at 340 nm.
(§6) The enzyme activity was calculated by the following formula: Enzyme activity (U)=EW×V×10^3/(6220×I);
(§7) in the formula, EW is the change in absorbance at 340 nm in 1 min; V is the volume of a reaction solution in mL; 6220 is the molar extinction coefficient of NADPH in L/mol·cm); and 1 is the optical path distance in cm. One activity unit (U) corresponds to the amount of enzyme required to catalyze the oxidation of 1 μmol NADPH per minute under the above conditions.
as §4

[5] = Stereoselectivity (ee) of CPMK reduction, chiral liquid chromatography
Protocol: as §1, §2, §3

[6] = Kinetic analysis of alcohol dehydrogenase and mutants (NADPH oxidation, 340 nm, double reciprocal curve); conditions: substrate CPMK
Protocol: as §5, §6, §7
A column used for purification was a nickel affinity column HisTrap FF crude, and purification was achieved through affinity chromatography using a histidine tag on recombinant protein. The nickel column was equilibrated with a solution A first, a crude enzyme solution was loaded, a penetrating peak was further eluted off using the solution A, and after equilibrium, a solution B (20 mM sodium phosphate, 500 mM NaCl, and 1000 mM imidazole, pH 7.4) was used for gradient elution to elute off the recombinant protein bound to the nickel column, so as to obtain the recombinant alcohol dehydrogenase mutant. The purified protein was subjected to activity measurement (CPMK as substrate, and NADPH as coenzyme) and SDS-PAGE analysis. […] The purified alcohol dehydrogenase protein was then replaced into a Tris-HCl (100 mM, pH 7.0) buffer using a Hi Trap Desalting column (GE Healthcare).
The activity of KpADH at different substrate concentrations and coenzyme concentrations was determined, and a double reciprocal curve was made based on the reciprocal of activity and substrate concentration to calculate kinetic parameters.

[7] = product configuration in brackets

B1: E214G/S237C: glycine for glutamate at position 214 and cysteine for serine at position 237 of SEQ ID No. 2 (protein)
chain: MSVLISGASGYIAKHIVRVLLEQNYKVIGTVRSQDKADKLLKQYNNPNLSYEIVPEIANLDAFDDIFKKHGKEIKYVIHAASPVNFGAKDLEKDLVIPAINGTKNMFEAIKKYAPDTVERVVMTASYASIMTPHRQNDPTLTLDEETWNPVTEENAYENVFTAYCASKTFAEKEAWKFVKENSDAVKFKLTTIHPSFVFGPQNFDEDVTKKLNGTCEIINGLLHAPFDTKVEKTHFCQFIDVRDVAKTHVLGFQKDELINQRLLLCNGAFSQQDIVNVFNEDFPELKGQFPPEDKDTDLNKGVTGCKIDNEKTKKLLAFEFTPFHKTIHDTVYQILHKEGRV
modifications: Protein translated from synthetic DNA
Stereoselectivity (ee) ([1]; substrate [drawing 13]): 51.9 (R)
Stereoselectivity (ee) ([1]; substrate [drawing 14], likely CPMK (values partly match Table 4)): 43.2 (S)
Stereoselectivity (ee) ([1]; substrate [drawing 15]): 86.2 (R)
Stereoselectivity (ee) ([1]; substrate [drawing 18]): 93.8 (S)
Stereoselectivity (ee) ([2]; substrate [drawing 10], acetophenone): 99.5 (R)
Stereoselectivity (ee) ([2]; substrate [drawing 11], 4-chloroacetophenone): 93.8 (R)
Stereoselectivity (ee) ([2]; substrate [drawing 12], 4-chlorobenzoyl chloride): 96.2 (R)
Stereoselectivity (ee) ([2]; substrate [drawing 16], (4-bromophenyl)-(phenyl)-methanone): 91.4 (R)
Stereoselectivity (ee) ([2]; substrate [drawing 17], p-nitrobenzophenone): 93.3 (R)
ee value ([2]; substrate acetophenone, R configuration products): 99.5%
Conversion rate ([3]; acetophenone 100 mM, 1 h): 42%
Conversion rate ([3]; acetophenone 100 mM, 2 h): 53%
Conversion rate ([3]; acetophenone 100 mM, 3 h): 65%
Conversion rate ([3]; acetophenone 100 mM, 4 h): 77%
Conversion rate ([3]; acetophenone 100 mM, 6 h): 95%
Conversion rate ([3]; acetophenone 100 mM, 8 h): 99.0%
Conversion rate ([3]; acetophenone 100 mM, 12 h): >99.9%
Conversion rate ([3]; acetophenone 100 mM, 24 h): >99.9%
Conversion rate ([3]; acetophenone 200 mM, 1 h): 35%
Conversion rate ([3]; acetophenone 200 mM, 2 h): 49%
Conversion rate ([3]; acetophenone 200 mM, 3 h): 60%
Conversion rate ([3]; acetophenone 200 mM, 4 h): 72%
Conversion rate ([3]; acetophenone 200 mM, 6 h): 85.9%
Conversion rate ([3]; acetophenone 200 mM, 8 h): 93.6%
Conversion rate ([3]; acetophenone 200 mM, 12 h): 99.2%
Conversion rate ([3]; acetophenone 200 mM, 24 h): 99.7%
Conversion rate ([3]; acetophenone 500 mM, 1 h): 20.9%
Conversion rate ([3]; acetophenone 500 mM, 2 h): 34.5%
Conversion rate ([3]; acetophenone 500 mM, 3 h): 49.6%
Conversion rate ([3]; acetophenone 500 mM, 4 h): 62.6%
Conversion rate ([3]; acetophenone 500 mM, 6 h): 77.9%
Conversion rate ([3]; acetophenone 500 mM, 8 h): 88.6%
Conversion rate ([3]; acetophenone 500 mM, 12 h): 92.9%
Conversion rate ([3]; acetophenone 500 mM, 24 h): 99.2%
specific activity ([4]; substrate [drawing 1]): 0.15 U/mg
specific activity ([4]; substrate [drawing 2]): 0.07 U/mg
specific activity ([4]; substrate [drawing 3]): 0.12 U/mg
specific activity ([4]; substrate [drawing 4]): 3.10 U/mg
specific activity ([4]; substrate [drawing 5]): 4.84 U/mg
specific activity ([4]; substrate [drawing 6], 4-chlorophenacyl chloride): 9.81 U/mg
specific activity ([4]; substrate [drawing 7]): 10.26 U/mg
specific activity ([4]; substrate [drawing 8]): 21.25 U/mg
specific activity ([4]; substrate [drawing 9], ethyl 4-chloro-3-oxobutanoate): 1.55 U/mg
configuration of product / stereoselectivity in words [5]: inversion from the R configuration to the S configuration; also recorded: (S)-CPMA
ee value, (S)-CPMA ([5]; S configuration product): 75.5%
e.e. [5, 7]: 75.5 (S)

B2: E214Q: glutamine for glutamate at position 214 of the alcohol dehydrogenase of SEQ ID No. 2 (protein)
chain: MSVLISGASGYIAKHIVRVLLEQNYKVIGTVRSQDKADKLLKQYNNPNLSYEIVPEIANLDAFDDIFKKHGKEIKYVIHAASPVNFGAKDLEKDLVIPAINGTKNMFEAIKKYAPDTVERVVMTASYASIMTPHRQNDPTLTLDEETWNPVTEENAYENVFTAYCASKTFAEKEAWKFVKENSDAVKFKLTTIHPSFVFGPQNFDEDVTKKLNQTCEIINGLLHAPFDTKVEKTHFSQFIDVRDVAKTHVLGFQKDELINQRLLLCNGAFSQQDIVNVFNEDFPELKGQFPPEDKDTDLNKGVTGCKIDNEKTKKLLAFEFTPFHKTIHDTVYQILHKEGRV
modifications: Protein translated from synthetic DNA
Kcat [6]: 16.26 ± 1.33 s⁻¹
Km [6]: 1.3 ± 0.2 mM
Vmax [6]: 24.4 ± 0.20 µM/min/mg
ee % [5, 7]: 58.5 (R) %
